The results in this text go back to patent US20200010567A1 (NEURIMMUNE, published 2020).

One experiment has as its target T1, (PA)15: H-C(PA)15-OH.
T1 construct: synthetic, not coupled to BSA; also called poly-PA DPR protein peptide
T1 peptide: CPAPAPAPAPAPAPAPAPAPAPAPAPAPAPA
Briefly: indirect ELISA, coated peptide. On the procedure:
(§1) In brief, dipeptide repeat proteins were synthesized and purified by Schafer-N(Copenhagen, Denmark): (GA)₁₅: H-CHHHHHH(GA)₁₅-OH; (GP)₁₅: H-C(GP)₁₅-OH; (GR)₁₅: H-C(GR)₁₅-OH; (PA)₁₅: H-C(PA)₁₅-OH; (PR)₁₅: H—C(PR)₁₅-OH. 96-well microplates (Corning Incorporated, Corning, USA) were coated with dipeptide repeat protein peptides at a concentration of either 5 μg/ml or 20 μg/ml in coating buffer (15 mM Na₂CO₃, 35 mM NaHCO₃, pH 9.42). Non-specific binding sites were blocked for 1 h at room temperature with PBS/0.1% Tween®-20 containing 2% BSA (Sigma-Aldrich, Buchs, Switzerland). Primary antibodies were diluted to the indicated concentrations and incubated for 1 h at room temperature, followed by incubation with a donkey anti-human IgG Fcγ-specific antibody conjugated with HRP (Jackson ImmunoResearch Laboratories, Inc., West Grove, USA). Binding was determined by measurement of HRP activity in a standard colorimetric assay. EC₅₀ values were estimated by non-linear regression using GraphPad Prism software (San Diego, USA). The binding specificity and EC₅₀ of human-derived antibodies for C9orf72 dipeptide repeat protein peptides (GA)₁₅, (GP)₁₅, (GR)₁₅, (PA)₁₅ and (PR)₁₅ were determined by indirect ELISA.
In general terms: An ELISA detects its analyte on a solid surface through an enzyme-linked reagent.

Another experiment has as its target T2, (GR)15: H-C(GR)15-OH.
T2 construct: synthetic, not coupled to BSA; also called poly-GR DPR protein peptide
T2 peptide: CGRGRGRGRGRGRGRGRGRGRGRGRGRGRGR
Briefly: indirect ELISA, coated peptide. On the procedure: as §1

For the next experiment, the target named is T3, (PR)15: H-C(PR)15-OH.
T3 construct: synthetic, not coupled to BSA; also called poly-PR DPR protein peptide
T3 peptide: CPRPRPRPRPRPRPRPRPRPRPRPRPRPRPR
As to the kind of experiment: indirect ELISA, coated peptide. How it is done: as §1

For experiment [1], the target named is T4, full-length amyloid precursor protein (UniProt P05067 18-770, limits assumed).
T4 construct: also called flAPP
T4 sequence (P05067 18-770 limits assumed): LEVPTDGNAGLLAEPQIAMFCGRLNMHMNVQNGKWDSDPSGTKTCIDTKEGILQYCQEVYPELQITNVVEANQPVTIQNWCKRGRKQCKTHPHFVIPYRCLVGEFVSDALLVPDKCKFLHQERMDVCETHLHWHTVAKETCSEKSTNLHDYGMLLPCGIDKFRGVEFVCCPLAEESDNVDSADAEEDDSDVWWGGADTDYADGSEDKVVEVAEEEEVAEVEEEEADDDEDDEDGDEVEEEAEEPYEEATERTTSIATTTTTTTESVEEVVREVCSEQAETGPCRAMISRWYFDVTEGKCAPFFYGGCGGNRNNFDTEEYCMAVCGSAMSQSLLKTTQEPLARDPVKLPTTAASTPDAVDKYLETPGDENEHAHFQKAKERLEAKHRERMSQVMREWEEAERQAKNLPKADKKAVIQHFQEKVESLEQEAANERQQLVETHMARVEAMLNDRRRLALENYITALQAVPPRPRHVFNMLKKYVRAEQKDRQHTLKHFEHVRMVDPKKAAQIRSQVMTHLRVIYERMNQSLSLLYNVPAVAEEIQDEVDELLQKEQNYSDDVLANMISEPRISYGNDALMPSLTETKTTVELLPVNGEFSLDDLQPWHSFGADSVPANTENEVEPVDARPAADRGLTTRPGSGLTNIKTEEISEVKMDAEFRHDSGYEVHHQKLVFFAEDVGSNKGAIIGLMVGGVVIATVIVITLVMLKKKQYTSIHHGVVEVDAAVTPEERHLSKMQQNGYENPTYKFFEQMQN
Briefly: indirect ELISA, coated protein. On the procedure:
(§2) 96-well microplates (Corning) were coated with different target proteins at a concentration of 1-10 μg/ml in coating buffer (15 mM Na₂CO₃, 35 mM NaHCO₃, pH 9.42). Non-specific binding sites were blocked for 1 h at RT with PBS/0.1% Tween®-20 containing 2% BSA (Sigma-Aldrich, Buchs, Switzerland). […] Binding was determined using donkey anti-human IgG Fcγ-specific antibody conjugated with HRP (Jackson ImmunoResearch Laboratories, Inc., West Grove, USA) followed by measurement of HRP activity in a standard colorimetric assay. Signals for target protein were calculated in fold increase above median.

Another experiment deals with Tau (UniProt P10636-8 1-441, limits assumed). As to the kind of experiment: indirect ELISA, coated protein. On the procedure:
as §2

Another experiment concerns the target transthyrethin (UniProt P02766 21-147). Briefly: indirect ELISA, coated protein. How it is done:
as §2

Experiment [2] deals with T5, transactive response DNA binding protein 43 (UniProt Q13148 1-414, limits assumed).
T5 construct: also called TDP-43
T5 sequence (Q13148 whole entry): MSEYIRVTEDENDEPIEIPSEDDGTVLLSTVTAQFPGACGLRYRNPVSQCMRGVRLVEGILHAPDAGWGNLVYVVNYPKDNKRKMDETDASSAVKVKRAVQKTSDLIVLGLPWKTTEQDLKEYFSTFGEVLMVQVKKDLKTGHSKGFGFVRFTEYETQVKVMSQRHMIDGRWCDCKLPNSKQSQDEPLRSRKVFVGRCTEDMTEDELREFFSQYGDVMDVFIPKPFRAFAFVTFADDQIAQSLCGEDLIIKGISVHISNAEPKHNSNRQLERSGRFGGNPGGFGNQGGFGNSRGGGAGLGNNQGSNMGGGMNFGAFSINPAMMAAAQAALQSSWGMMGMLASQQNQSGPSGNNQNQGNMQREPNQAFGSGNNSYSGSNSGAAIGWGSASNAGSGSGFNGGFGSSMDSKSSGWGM
As to the kind of experiment: indirect ELISA, coated protein. On the procedure:
as §2

The target in the next experiment is T6, (GP)15: H-C(GP)15-OH.
T6 construct: synthetic, not coupled to BSA; also called poly-GP DPR protein peptide
T6 peptide: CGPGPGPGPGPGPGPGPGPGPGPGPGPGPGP
As to the kind of experiment: indirect ELISA, coated peptide. On the procedure: as §1

In a further experiment the target is T7, GA6: H-(GA)6HHHHHH-NH2.
T7 peptide: H-GAGAGAGAGAGAHHHHHH-NH2
Briefly: indirect ELISA, coated His-tagged peptide. From the text: (§3) In brief, dipeptide repeat proteins were synthesized and purified by Schafer-N (Copenhagen, Denmark): GA₂₀: H-(GA)₂₀HHHHHH-NH₂; GA₁₀: H-(GA)₁₀HHHHHH-NH₂; GA₆: H-(GA)₆HHHHHH-NH₂; GA₅: H-(GA)₅HHHHHH-NH₂; GA₄: H-(GA)₄HHHHHH-NH₂; GA₃: H-(GA)₃HHHHHH-NH₂; GA₂: H-(GA)₂HHHHHH-NH₂; GP₂₀: H-(GP)₂₀HHHHHH-NH₂; GP₁₀: H-(GP)₁₀HHHHHH-NH₂; GP₆: H-(GP)₆HHHHHH-NH₂; GP₅: H-(GP)₅HHHHHH-NH₂; GP₄: H-(GP)₄HHHHHH-NH₂; GP₃: H-(GP)₃HHHHHH-NH₂; GP₂: H-(GP)₂HHHHHH-NH₂. GR₂₀: H-(GR)₂₀HHHHHH-NH₂; GR₁₀: H-(GR)₁₀HHHHHH-NH₂; GR₆: H-(GR)₆HHHHHH-NH₂; GR₅: H-(GR)₅HHHHHH-NH₂; GR₄: H-(GR)₄HHHHHH-NH₂; GR₃: H-(GR)₃HHHHHH-NH₂; GR₂: H-(GR)₂HHHHHH-NH₂; PA₂₀: H-(PA)₂₀HHHHHH-NH₂; PA₁₀: H-(PA)₁₀HHHHHH-NH₂; PA₆: H-(PA)₆HHHHHH-NH₂; PA₅: H-(PA)₅HHHHHH-NH₂; PA₄: H-(PA)₄HHHHHH-NH₂; PA₃: H-(PA)₃HHHHHH-NH₂; PA₂: H-(PA)₂HHHHHH-NH₂; PR₂₀: H-(PR)₂₀HHHHHH-NH₂; PR₁₀: H-(PR)₁₀HHHHHH-NH₂; PR₆: H-(PR)₆HHHHHH-NH₂; PR₅: H-(PR)₅HHHHHH-NH₂; PR₄: H-(PR)₄HHHHHH-NH₂; PR₃: H-(PR)₃HHHHHH-NH₂; PR₂: H-(PR)₂HHHHHH-NH₂. 96-well microplates (Corning Incorporated, Corning, USA) were coated with dipeptide repeat protein peptides at a concentration of 50 μg/ml in coating buffer (15 mM Na₂CO₃, 35 mM NaHCO₃, pH 9.42). Non-specific binding sites were blocked for 1 h at room temperature with PBS/0.1% Tween®-20 containing 2% BSA (Sigma-Aldrich, Buchs, Switzerland). Primary antibodies were diluted to the indicated concentrations and incubated 1 h at room temperature, followed by incubation with a donkey anti-human IgG Fcγ-specific antibody conjugated with HRP (Jackson ImmunoResearch Laboratories, Inc., West Grove, USA). Binding was determined by measurement of HRP activity in a standard colorimetric assay. EC₅₀ values were estimated by non-linear regression using GraphPad Prism software (San Diego, USA).

The target in a further experiment is T8, GA20: H-(GA)20HHHHHH-NH2 (C-terminal amide).
T8 peptide: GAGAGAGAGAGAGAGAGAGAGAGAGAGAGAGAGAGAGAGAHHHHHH
Briefly: indirect ELISA, coated His-tagged peptide.
Description: as §3

The target of another experiment is T9, GA10: H-(GA)10HHHHHH-NH2 (C-terminal amide).
T9 peptide: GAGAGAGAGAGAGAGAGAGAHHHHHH
As to the kind of experiment: indirect ELISA, coated His-tagged peptide.
Description: as §3

Sequence of Tau (P10636 other isoform, or with tags, fused parts or gaps limits assumed): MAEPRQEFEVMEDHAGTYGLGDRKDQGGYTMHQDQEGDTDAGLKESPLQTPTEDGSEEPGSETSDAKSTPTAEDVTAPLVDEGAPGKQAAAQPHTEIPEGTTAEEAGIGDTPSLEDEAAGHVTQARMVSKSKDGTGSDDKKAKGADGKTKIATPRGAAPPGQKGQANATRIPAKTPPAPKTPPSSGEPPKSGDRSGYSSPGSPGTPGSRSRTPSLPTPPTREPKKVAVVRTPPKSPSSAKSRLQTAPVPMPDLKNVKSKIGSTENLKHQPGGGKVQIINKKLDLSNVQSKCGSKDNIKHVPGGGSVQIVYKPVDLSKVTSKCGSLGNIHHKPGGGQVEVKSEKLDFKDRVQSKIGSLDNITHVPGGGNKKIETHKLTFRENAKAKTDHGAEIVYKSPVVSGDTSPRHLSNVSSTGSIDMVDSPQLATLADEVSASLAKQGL

B1: NI-308.46E9 (antibody, V domains shown)
VH: QVQLQESGPGLVKPSETLSLTCTVSGASISGSTYYWGWIRQPPGKGLEYIGRIYYSGSTYYNPSLKSRATISVDTSKNQLSLTLSSVTAADTAVYYCVRPFYAGSGNSPFDYWGQGTLVTVSS
VL: CEIVLTQSPATVSVSPGERATLSCRASQSVSTNLAWYQQKPGQPPRLLIYGASTRATGIPARFSGSGSGAEFTLTISSLQSEDFVVYYCQQYNNWPPAFGGGTKVEIK
notes: Recombinant complete human IgG1, kappa
B1: the binding result with (PA)15: H-C(PA)15-OH, with (GR)15: H-C(GR)15-OH and with (PR)15: H-C(PR)15-OH was “no binding” each time.

B2: NI-308.24E11 (antibody, V domains shown)
VH: QVQLQESGPGLVKPSETLSLTCTVSTTSLRSYFWSWIRQPPGKGLEWIGYVYYSGSTIYNPSLKNRVTISIDTSKNQFSLNLRSVTAADTAMYFCARGVPAETDARDFPPYYFDHWGQGTLVTVSS
VL: CDIQLTQSPSSLSASVGNRITFTCQASQDIRYYLNWYQQKPGKAPKLLIYDVSNLDTGVPPRFSGSGSGTNFTFTISSLQPEDIAVYYCQQYEGLPVTFGGGTKVEIK
notes: as for B1
Regarding B2, the binding result is given as “no binding (tested: 20 nM)” in experiment [1]; “no binding (tested: 20 nM)” with Tau; “no binding (tested: 20 nM)” with transthyrethin; “no binding (tested: 20 nM)” in [2]; “no binding” with (PA)15: H-C(PA)15-OH; “no binding” in the experiment with (GR)15: H-C(GR)15-OH. For the same molecule, in the experiment with (GP)15: H-C(GP)15-OH, the binding result is “no binding”.

B3: NI-308.6B11 (antibody, V domains shown)
VH: EVQLVQSGAEVKRPGASVKVSCKVSGYTLTELSMHWVRQAPGKGLEWMGGFDPEDGETVYAQKFQGRVTMTEDTSTDTAYMELSSLRSEDTALYHCATYGSSWHWNEGNEGSYYFDYWGQGTLVTVSS
VL: CDIQMTQSPSSLSASVGDRVTITCQASQDISIYLNWYQQKPGKAPKLLIYDASNLETGVPSRFSGSGSGTDFTFTISGLQPEDVARYYCQQYDDLPITFGQGTRLEIK
notes: as for B1
As a reminder, the EC50 is the midpoint of the concentration-response curve. The low end stands for higher potency in that assay, the high end for lower potency in that assay. For the molecule B3, the binding result in [1] is on record as “no binding (tested: 20 nM)”; in the experiment with Tau, “no binding (tested: 20 nM)”; in the experiment with transthyrethin, “no binding (tested: 20 nM)”; in experiment [2] it was “no binding (tested: 20 nM)”; in the experiment with (PA)15: H-C(PA)15-OH, “no binding”; in the experiment with (GP)15: H-C(GP)15-OH, “no binding”. Also, the EC50 in the experiment with GA6: H-(GA)6HHHHHH-NH2 was over 200 nM; with GA20: H-(GA)20HHHHHH-NH2, 33.6 nM; in the experiment with GA10: H-(GA)10HHHHHH-NH2, 27.7 nM.

B4: NI-308.28G1 (antibody, V domains shown)
VH: QVQLQESGPRLVKPSETLSLTCTVAGGSVNSYYWTWIQQSPGKGLEWLGRIYIAGRTNYNPSLTSRIALSVDTSRNQLSLKLTSVTAADTAIYYCARWGAESGDYYYGVDVWGPGTLVTVSS
VL: EIVMTQSPLSLPVTPGEPASISCKSSEGLLHSNGYTYLDWYLQKPGQAPQLLIFLASNRAAGVPDRFSGSGSGTDFTLKISRVEAEDVGVYYCMQAIQSPWTFGPGTKVEIK
notes: as for B1
Regarding B4, the binding result is reported as “no binding (tested: 20 nM)” in [1]; “no binding (tested: 20 nM)” in the experiment with Tau; “no binding (tested: 20 nM)” with transthyrethin; “no binding (tested: 20 nM)” in experiment [2]; “no binding” with (PA)15: H-C(PA)15-OH; “no binding” with (GR)15: H-C(GR)15-OH. The binding result in the experiment with (PR)15: H-C(PR)15-OH and with (GP)15: H-C(GP)15-OH was “no binding” throughout. For the same molecule, the EC50 with GA20: H-(GA)20HHHHHH-NH2 was determined as 1.1 nM; in the experiment with GA10: H-(GA)10HHHHHH-NH2 it was 0.9 nM.

B5: NI-308.15O7 (antibody, V domains shown)
VH: QVQLVESGGGVVQPGRSLRLSCAASGFTFSNHAMHWVRQAPGKGLEWVAVISYDGENTYYADSIEGRFTISRDNFKNTLFLQMYSLTADDTAMYFCARGGRRGHFTSYYLDYWGQGTLVTVSS
VL: CDIQMTQSPSSLSASVGDRVTITCRASQNIDKYLNWYQQIPGKAPKLLIYAASSLHSGVPSRFSGSGSGTDFSLTISSLQPEDFAIYYCQQSYSSFRTFGQGTKLEIK
For the molecule B5, the binding result is “no binding (tested: 20 nM)” in experiment [1]; “no binding (tested: 20 nM)” in the experiment with Tau; “no binding (tested: 20 nM)” with transthyrethin; “no binding (tested: 20 nM)” in experiment [2]; “no binding” with (PA)15: H-C(PA)15-OH; “no binding” in the experiment with (GR)15: H-C(GR)15-OH. Also, the binding result with (PR)15: H-C(PR)15-OH and with (GP)15: H-C(GP)15-OH was “no binding” each time. For the same molecule, in the experiment with GA20: H-(GA)20HHHHHH-NH2, a half-maximal response (EC50) required 0.54 nM.

B6: NI-308.4M1 (antibody, V domains shown)
VH: EVQLVETGGGVVQPGGSLRLSCEASGFTIGTYAMHWVRQFPGKGLDWVAVISFDGTTEYYTDAVKGRFTISRDNAKNTLYLQMNYLRGDDTAIYFCARDFTSSGETGSWTQVPDLWGQGTLVTVSS
VL: CEIVMTQSPATLSLSPGERATLSCRASQSVTKYLAWYQQKPGQAPRLLIYDVSYRAAGTPARFSGSGSGTDFTLTISSLEPEDFAVYYCHQRSSWPPVTFGGGTKVEIK
notes: as for B1
As for B6, the binding result in the experiment with (GR)15: H-C(GR)15-OH, with (PR)15: H-C(PR)15-OH and with (GP)15: H-C(GP)15-OH was “no binding” in each case.
